This assay has as its target His-tagged recombinant AjBNIP3 (rAjBNIP3) (Apostichopus japonicus). The assay can be described thus: MST.

As for Recombinant His-AjLC3 (natural protein), the Kd amounted to 2.82 µM.

By Kd is commonly meant a measure of binding affinity in units of concentration.

Values taken from article PMC8920847.
